From the supplement of paper PMC10065799, “High-throughput profiling of sequence recognition by tyrosine kinases and SH2 domains using bacterial peptide display” (eLife, 2023)

Columns and labels:
c-Src SH2 = assay: SH2 binding enrichment of the phosphorylated peptide, bacterial display (enrichment ratio); higher = better substrate or ligand; peptides without Tyr show the background
Grb2 SH2 = Grb2 SH2 (UniProt P62993); assay: as above
SHP2-C SH2 = assay: as above
MERTK = MERTK (UniProt Q12866); assay: phosphorylation enrichment, bacterial display (enrichment ratio); higher = better substrate or ligand; peptides without Tyr show the background
EPHB2 = EPHB2 (UniProt P29323); assay: as above
FGFR3 = FGFR3 (UniProt P22607); assay: as above
AncSZ = assay: as above
Fyn = Fyn (UniProt P06241); assay: as above
Hck = Hck (UniProt P08631); assay: as above
Fes = Fes (UniProt P07332); assay: as above
EPHB1 = EPHB1 (UniProt P54762); assay: as above
c-Src = assay: as above
c-Abl (mouse) = assay: as above
Jak2 = Jak2 (UniProt O60674); assay: as above
Fer (mouse) = assay: as above
FGFR1 = FGFR1 (UniProt P11362); assay: as above
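For SH2 binding enrichment of the phosphorylated peptide, bacterial display in this document: peptide library displayed on the E. coli surface as eCPX fusions, selected cells deep-sequenced, score is each peptide's frequency after selection divided by its frequency in the input.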
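For phosphorylation enrichment, bacterial display in this document: 11-residue human phosphosite peptides and single-mutation variants displayed on the E. coli surface, counted by deep sequencing, each peptide's frequency after selection divided by its frequency in the unselected input library; frequency after pTyr selection over input frequency; kinase dosed for 20-30% of maximal phosphorylation in three min.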

Chain of EPHB1 (P54762 whole entry, looked up): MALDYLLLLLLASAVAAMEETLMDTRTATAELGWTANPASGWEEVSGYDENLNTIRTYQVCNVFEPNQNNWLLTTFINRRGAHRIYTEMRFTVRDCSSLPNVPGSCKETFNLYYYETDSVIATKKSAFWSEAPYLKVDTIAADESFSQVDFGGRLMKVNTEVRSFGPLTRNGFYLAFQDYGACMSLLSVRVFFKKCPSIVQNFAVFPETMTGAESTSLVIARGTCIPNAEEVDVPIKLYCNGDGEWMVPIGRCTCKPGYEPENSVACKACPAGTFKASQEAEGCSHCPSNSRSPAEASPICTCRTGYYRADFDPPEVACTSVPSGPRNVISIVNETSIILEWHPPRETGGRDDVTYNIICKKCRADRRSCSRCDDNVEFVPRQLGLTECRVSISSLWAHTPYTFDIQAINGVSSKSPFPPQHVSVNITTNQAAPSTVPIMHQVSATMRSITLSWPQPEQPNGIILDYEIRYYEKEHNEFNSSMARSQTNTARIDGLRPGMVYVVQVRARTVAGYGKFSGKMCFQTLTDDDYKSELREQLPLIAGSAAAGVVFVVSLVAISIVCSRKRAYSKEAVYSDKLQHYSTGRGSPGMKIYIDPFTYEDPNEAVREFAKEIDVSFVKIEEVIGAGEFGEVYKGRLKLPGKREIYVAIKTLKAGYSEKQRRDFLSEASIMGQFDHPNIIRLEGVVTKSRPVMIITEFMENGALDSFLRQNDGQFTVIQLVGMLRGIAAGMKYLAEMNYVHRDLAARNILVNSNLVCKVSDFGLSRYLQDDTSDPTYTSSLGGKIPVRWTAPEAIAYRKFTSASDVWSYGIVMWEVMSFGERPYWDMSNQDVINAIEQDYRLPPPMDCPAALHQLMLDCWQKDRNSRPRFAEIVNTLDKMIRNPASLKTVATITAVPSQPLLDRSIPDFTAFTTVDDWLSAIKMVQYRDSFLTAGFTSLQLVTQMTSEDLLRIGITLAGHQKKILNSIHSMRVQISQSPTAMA
Chain of MERTK (Q12866 whole entry, looked up): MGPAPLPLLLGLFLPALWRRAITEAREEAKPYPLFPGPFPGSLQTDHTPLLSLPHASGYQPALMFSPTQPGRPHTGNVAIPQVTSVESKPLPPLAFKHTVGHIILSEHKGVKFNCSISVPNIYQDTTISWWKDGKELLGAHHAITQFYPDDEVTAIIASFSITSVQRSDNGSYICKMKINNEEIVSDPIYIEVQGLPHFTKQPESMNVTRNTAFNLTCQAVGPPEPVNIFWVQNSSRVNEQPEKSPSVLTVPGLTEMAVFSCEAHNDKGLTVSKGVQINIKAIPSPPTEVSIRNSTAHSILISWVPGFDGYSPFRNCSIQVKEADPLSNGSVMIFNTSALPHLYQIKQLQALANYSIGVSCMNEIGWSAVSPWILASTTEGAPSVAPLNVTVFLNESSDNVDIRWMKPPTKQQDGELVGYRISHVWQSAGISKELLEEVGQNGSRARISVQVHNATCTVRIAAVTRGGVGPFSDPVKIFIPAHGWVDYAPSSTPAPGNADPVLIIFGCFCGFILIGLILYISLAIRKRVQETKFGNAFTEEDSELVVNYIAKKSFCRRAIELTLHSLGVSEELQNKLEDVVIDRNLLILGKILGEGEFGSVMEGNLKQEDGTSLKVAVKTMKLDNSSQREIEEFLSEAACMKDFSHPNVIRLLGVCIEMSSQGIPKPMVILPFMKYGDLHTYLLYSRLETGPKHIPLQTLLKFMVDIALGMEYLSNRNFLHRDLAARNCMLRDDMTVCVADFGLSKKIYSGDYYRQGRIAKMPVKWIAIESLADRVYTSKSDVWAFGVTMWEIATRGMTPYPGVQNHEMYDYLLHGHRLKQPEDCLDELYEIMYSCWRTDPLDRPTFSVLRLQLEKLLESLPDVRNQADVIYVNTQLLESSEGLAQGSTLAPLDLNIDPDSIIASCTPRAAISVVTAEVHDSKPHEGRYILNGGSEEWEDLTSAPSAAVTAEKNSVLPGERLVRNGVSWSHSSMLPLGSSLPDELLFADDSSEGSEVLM
Chain of FGFR3 (P22607 whole entry, looked up): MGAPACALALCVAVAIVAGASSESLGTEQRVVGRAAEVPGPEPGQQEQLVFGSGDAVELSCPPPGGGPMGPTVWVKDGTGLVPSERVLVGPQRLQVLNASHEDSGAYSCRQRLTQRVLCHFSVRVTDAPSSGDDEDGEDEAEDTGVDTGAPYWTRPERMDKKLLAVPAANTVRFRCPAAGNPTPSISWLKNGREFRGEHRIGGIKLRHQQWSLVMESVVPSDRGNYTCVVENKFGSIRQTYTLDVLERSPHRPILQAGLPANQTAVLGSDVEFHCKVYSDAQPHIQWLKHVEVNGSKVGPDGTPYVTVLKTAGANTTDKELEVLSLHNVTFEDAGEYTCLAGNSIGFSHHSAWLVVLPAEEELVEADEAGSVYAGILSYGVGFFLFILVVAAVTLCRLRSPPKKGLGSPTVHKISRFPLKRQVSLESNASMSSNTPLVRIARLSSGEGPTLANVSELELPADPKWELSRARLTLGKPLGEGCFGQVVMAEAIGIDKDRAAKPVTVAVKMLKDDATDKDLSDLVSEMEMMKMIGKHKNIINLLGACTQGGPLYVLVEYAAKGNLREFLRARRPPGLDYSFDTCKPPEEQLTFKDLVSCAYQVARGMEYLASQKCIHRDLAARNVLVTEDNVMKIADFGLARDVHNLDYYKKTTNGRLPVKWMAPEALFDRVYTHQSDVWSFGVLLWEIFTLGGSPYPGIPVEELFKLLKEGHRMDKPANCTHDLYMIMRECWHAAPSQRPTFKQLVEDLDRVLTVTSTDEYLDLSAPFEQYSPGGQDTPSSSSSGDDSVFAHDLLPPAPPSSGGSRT
Chain of Hck (P08631 whole entry, looked up): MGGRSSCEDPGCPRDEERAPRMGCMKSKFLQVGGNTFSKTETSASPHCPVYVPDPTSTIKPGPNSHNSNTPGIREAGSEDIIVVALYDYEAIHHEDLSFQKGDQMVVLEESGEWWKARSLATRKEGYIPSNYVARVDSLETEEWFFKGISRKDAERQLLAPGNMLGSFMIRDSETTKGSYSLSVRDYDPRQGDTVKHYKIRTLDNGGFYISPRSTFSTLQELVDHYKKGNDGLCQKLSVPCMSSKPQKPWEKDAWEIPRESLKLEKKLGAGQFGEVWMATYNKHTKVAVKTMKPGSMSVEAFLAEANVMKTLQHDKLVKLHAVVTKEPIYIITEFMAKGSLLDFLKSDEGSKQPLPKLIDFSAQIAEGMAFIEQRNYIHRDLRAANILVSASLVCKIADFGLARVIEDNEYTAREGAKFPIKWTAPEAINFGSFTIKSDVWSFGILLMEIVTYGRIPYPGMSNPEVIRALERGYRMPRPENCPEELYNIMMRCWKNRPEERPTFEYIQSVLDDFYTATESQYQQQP
Chain of Fyn (P06241 whole entry, looked up): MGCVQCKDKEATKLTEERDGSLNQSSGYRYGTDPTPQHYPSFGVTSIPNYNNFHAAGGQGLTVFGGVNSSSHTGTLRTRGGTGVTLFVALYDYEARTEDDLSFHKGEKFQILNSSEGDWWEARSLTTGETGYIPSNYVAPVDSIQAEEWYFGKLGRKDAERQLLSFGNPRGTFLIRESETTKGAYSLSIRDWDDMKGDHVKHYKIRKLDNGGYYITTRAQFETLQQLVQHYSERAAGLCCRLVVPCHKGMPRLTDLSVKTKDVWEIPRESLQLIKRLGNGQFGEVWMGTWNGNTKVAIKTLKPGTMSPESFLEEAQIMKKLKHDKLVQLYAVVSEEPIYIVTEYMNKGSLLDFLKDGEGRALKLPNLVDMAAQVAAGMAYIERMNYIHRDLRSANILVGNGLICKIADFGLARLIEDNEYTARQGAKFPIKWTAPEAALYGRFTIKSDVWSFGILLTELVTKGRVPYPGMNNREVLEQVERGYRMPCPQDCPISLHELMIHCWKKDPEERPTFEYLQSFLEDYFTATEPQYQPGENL
Chain of Fes (P07332 whole entry, looked up): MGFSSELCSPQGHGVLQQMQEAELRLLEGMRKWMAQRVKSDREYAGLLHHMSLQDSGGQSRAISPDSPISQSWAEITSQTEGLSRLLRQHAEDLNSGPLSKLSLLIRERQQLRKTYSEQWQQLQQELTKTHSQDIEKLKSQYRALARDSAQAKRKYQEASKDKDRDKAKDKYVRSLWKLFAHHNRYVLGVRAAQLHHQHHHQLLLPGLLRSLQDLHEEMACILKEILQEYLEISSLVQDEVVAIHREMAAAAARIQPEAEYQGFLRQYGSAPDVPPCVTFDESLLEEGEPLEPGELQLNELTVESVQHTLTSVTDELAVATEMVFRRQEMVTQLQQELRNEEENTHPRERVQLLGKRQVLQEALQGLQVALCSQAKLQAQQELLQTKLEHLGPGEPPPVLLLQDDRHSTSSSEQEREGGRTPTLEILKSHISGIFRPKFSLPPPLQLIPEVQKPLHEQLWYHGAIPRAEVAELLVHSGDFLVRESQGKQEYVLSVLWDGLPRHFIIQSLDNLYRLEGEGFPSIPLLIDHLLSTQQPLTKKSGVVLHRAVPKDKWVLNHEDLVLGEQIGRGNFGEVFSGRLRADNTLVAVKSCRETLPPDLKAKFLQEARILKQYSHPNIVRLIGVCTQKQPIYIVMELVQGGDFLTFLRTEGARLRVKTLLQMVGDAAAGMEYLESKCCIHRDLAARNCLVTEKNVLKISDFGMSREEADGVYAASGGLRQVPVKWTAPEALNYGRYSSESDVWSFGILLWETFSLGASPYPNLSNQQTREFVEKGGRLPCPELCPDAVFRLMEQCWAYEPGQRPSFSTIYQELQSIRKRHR
Chain of Grb2 SH2 (P62993 whole entry, looked up): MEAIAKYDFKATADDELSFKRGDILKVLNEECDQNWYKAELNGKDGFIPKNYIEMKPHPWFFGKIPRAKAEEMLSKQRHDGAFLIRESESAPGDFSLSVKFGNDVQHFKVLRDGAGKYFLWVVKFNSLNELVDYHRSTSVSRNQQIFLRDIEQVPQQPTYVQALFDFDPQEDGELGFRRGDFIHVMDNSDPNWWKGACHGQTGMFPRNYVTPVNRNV

| Sequence | SH2 binding enrichment (c-Src SH2) | SH2 binding enrichment (Grb2 SH2) | SH2 binding enrichment (SHP2-C SH2) | phosphorylation enrichment (MERTK) | phosphorylation enrichment (EPHB2) | phosphorylation enrichment (FGFR3) | phosphorylation enrichment (AncSZ) | phosphorylation enrichment (Fyn) | phosphorylation enrichment (Hck) | phosphorylation enrichment (Fes) | phosphorylation enrichment (EPHB1) | phosphorylation enrichment (c-Src) | phosphorylation enrichment (c-Abl (mouse)) | phosphorylation enrichment (Jak2) | phosphorylation enrichment (Fer (mouse)) | phosphorylation enrichment (FGFR1) |
| --- | --- | --- | --- | --- | --- | --- | --- | --- | --- | --- | --- | --- | --- | --- | --- | --- |
| NTYENYWPFYQ [GATM_Y103_K102N] | 2.78 | 9.03 | 1.81 | 9.93 | 22.2 | 12.4 | 2.72 | 9.01 | 7.34 | 4.54 | 17.2 | 7.27 | 2.79 | 5.55 | 8.56 | 14.3 |
| LGRTRYQHVTG [MIPEP_Y510] | 0.748 | 0.881 | 0.767 | 0.499 | 0.393 | 0.428 | 0.694 | 0.488 | 0.309 | 0.723 | 0.439 | 0.445 | 0.564 | 0.559 | 0.377 | 0.477 |
| LVMFFYAIFGM [SCN1A_Y1684_I1683F] | 1.44 | 1.58 | 2.64 | 0.84 | 0.566 | 1.34 | 1.35 | 0.789 | 0.446 | 1.23 | 0.608 | 0.524 | 0.937 | 1.06 | 0.708 | 0.898 |
| PGNIVYSSLCG [BCOR_Y90] | 0.579 | 0.875 | 1.51 | 1.6 | 0.987 | 1.02 | 1.38 | 3.13 | 5.25 | 1.62 | 0.914 | 5.73 | 1.83 | 1.65 | 1.18 | 0.892 |
| KELANYYKLHH [AK7_Y390] | 0.697 | 0.825 | 0.622 | 0.844 | 1.89 | 1.83 | 0.708 | 0.453 | 0.495 | 0.685 | 4.12 | 0.509 | 0.497 | 2.44 | 0.383 | 2.93 |
| TIQMMYGCDVG [HLA-A_Y123_I121M] | 0.414 | 0.845 | 0.575 | 0.408 | 0.555 | 0.987 | 1.22 | 0.525 | 0.501 | 1.38 | 0.718 | 0.513 | 0.822 | 1.31 | 0.532 | 0.561 |
| LNCAGYCDALE [MTUS1_Y151] | 7.11 | 0.754 | 0.58 | 0.617 | 0.578 | 0.906 | 1.19 | 0.514 | 0.511 | 1.3 | 0.621 | 0.683 | 0.917 | 1.32 | 0.599 | 0.55 |
| LLEGKYEWQEV [CDKN1B_Y74_P69L] | 3.24 | 0.801 | 0.464 | 0.964 | 1.43 | 1.48 | 2 | 0.908 | 0.889 | 2.74 | 1.45 | 1.01 | 1.79 | 3 | 1.75 | 1.14 |
| LDTFIYDAAVL [GRIN2A_Y730_A727T] | 0.767 | 0.785 | 0.921 | 2.94 | 2.05 | 0.991 | 1.97 | 7.61 | 8.1 | 1.65 | 1.68 | 7.94 | 7.38 | 1.4 | 16.9 | 0.827 |
